Consider five proteins from patent US20180009908.

The target in series [1] is matuzumab HC_20.8.34_B + matuzumab LC (IgG1). The series is described as follows: LCMS, IgG1 BsAb co-expression in HEK293F.
Series [2] has as its target matuzumab HC_20.8.37_B + matuzumab LC (IgG1). The series is described as follows: LCMS, IgG1 BsAb co-expression in HEK293F.
The target of series [3] is matuzumab HC_20.8_B + matuzumab LC (IgG1). The series is described as follows: LCMS, IgG1 BsAb co-expression in HEK293F.
Series [4] has as its target matuzumab HC_20.8.34_B + matuzumab LC (IgG1). The series is described as follows: LCMS, IgG1 BsAb co-expression; HCA/HCB heterodimer carrying two LC1.
The target of series [5] is matuzumab HC_20.8.37_B + matuzumab LC (IgG1). Described as above.
In series [6] the target is matuzumab HC_20.8_B + matuzumab LC (IgG1). The description is as above.
Series [7] deals with matuzumab HC_20.8.34_B + matuzumab LC (IgG1). Nature of the series: LCMS, IgG1 BsAb co-expression; HCA/HCB heterodimer carrying two LC2.
Series [8] addresses matuzumab HC_20.8.37_B + matuzumab LC (IgG1). Described as above.
Series [9] addresses matuzumab HC_20.8_B + matuzumab LC (IgG1). The series is described as above.
Series [10] has as its target matuzumab HC_20.8.34_B + matuzumab LC (IgG4 HC backbone). The series is described as follows: LCMS, IgG4 BsAb co-expression in HEK293F.
The nature of series [11]: LCMS, IgG4 BsAb co-expression; HCA homodimer species.
In series [12] the target is matuzumab HC_20.8.34_B + matuzumab LC (IgG4 HC backbone). Nature of the series: LCMS, IgG4 BsAb co-expression; HCA/HCB heterodimer carrying two LC1.
Series [13] shares this target. Nature of the series: LCMS, IgG4 BsAb co-expression; HCA/HCB heterodimer carrying two LC2.
Series [14] addresses T1, HA-tagged human IgG1 Fc portion with CH3 mutations E356G, E357D, S364Q, Y407A.
T1 chain: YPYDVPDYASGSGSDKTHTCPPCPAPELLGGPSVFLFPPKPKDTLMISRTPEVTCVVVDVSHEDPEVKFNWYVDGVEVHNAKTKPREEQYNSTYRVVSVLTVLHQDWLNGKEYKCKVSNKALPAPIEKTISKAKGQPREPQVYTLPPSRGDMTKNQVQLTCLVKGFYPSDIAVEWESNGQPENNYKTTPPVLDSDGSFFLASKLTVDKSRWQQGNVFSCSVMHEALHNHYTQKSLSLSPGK
The series is described as follows: UPLC SEC of protein G-purified one-arm antibody co-expressed in HEK293F.

Series [15] deals with T2, HA-tagged human IgG1 Fc portion with CH3 mutations E357D, S364Q, Y407A.
T2 chain: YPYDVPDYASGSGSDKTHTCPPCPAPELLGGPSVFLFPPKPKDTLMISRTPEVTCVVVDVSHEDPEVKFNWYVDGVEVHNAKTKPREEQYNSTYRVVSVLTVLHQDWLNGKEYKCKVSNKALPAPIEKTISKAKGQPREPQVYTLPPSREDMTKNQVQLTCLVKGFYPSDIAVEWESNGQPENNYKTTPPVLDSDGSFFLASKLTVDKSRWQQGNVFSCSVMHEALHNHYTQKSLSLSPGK
The series is described as above.

In series [16] the target is T3, HA-tagged human IgG1 Fc portion with CH3 mutations E357D, S364R, Y407A.
T3 chain: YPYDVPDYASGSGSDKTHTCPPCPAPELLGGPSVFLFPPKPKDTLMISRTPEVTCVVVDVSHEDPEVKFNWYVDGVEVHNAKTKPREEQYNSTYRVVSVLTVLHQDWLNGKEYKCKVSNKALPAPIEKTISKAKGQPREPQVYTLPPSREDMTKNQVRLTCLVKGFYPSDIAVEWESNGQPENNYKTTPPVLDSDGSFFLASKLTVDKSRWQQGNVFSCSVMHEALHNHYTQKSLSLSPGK
Described as above.

In series [17] the target is matuzumab HC_7.8.60_B + matuzumab LC (IgG4 HC backbone). The series is described as follows: LCMS, IgG4 BsAb co-expression in HEK293F.
Series [18] shares this target. Nature of the series: LCMS, IgG4 BsAb co-expression; HCA/HCB heterodimer carrying two LC1.
Series [19] has the same target. The series is described as follows: LCMS, IgG4 BsAb co-expression; HCA/HCB heterodimer carrying two LC2.

B1: MetMAb HC_20.8.26_A + MetMAb LC (IgG1) (protein)
chain 1: EVQLVESGGGLVQPGGSLRLSCAASGYTFTSYWLHWVRKAPGKGLEWVGMIDPSNSDTRFNPEFKDRFTISADTSKNTAYLQMNSLRAEDTAVYYCATYRSYVTPLDYWGQGTLVTVSSASTKGPSVFPLAPSSKSTSGGTAALGCLVKDYFPEPVTVSWNSGALTSGVATGPAVLQSSGLYSLSSVVTVPSSSLGTQTYICNVNHKPSNTKVDKKVEPKSCDKTHTCPPCPAPELLGGPSVFLFPPKPKDTLMISRTPEVTCVVVDVSHEDPEVKFNWYVDGVEVHNAKTKPREEQYQSTYRVVSVLTVLHQDWLNGKEYKCKVSNKALPAPIEKTISKAKGQPREPQVSTLPPSREEMTKNQVSLMCLVYGFYPSDIAVEWESNGQPENNYKTTPPVLDSDGSFFLYSVLTVDKSRWQQGNVFSCSVMHEALHNHYTQKSLSLSPGK
chain 2: RIQMTQSPSSLSASVGDRVTITCKSSQSLLYTSSQKNYLAWYQDKPGKAPKLLIYWASTRESGVPSRFSGSGSGTDFTLTISSLQPEDFATYYCQQYYAYPWTFGQGTKVEIKGQPKAAPSVTLFPPSSEELQANKATLVCYISDFYPGAVTVAWKADSSPVKAGVETTTPSKQSNNKYAAWSYLSLTPEQWKSHRSYSCQVTHEGSTVEKTVAPTEC
In the case of B1, the % AB (LC1/LC2) (correct IgG BsAb assembly) in series [1] came to 95.8%; in series [2], 79.1%; in series [3], 58.6%. Further, the % AB (2x LC1) (incorrect assembly) in series [4], in series [5] and in series [6] was 0% each time. Besides, the % AB (2x LC2) (incorrect assembly) in series [7] is 4.2%; in [8], 20.9%; in series [9] it was 33.3%.

B2: MetMAb HC_20.8.34_A + MetMAb LC (IgG4 HC backbone) (protein)
chain 1: EVQLVESGGGLVQPGGSLRLSCAASGYTFTSYWLHWVRKAPGKGLEWVGMIDPSNSDTRFNPEFKDRFTISADTSKNTAYLQMNSLRAEDTAVYYCATYRSYVTPLDYWGQGTLVTVSSASTKGPSVFPLAPCSRSTSESTAALGCLVKDYFPEPVTVSWNSGALTSGVATGPAVLQSSGLYSLSSVVTVPSSSLGTKTYTCNVDHKPSNTKVDKRVESKYGPPCPPCPAPEAAGGPSVFLFPPKPKDTLMISRTPEVTCVVVDVSQEDPEVQFNWYVDGVEVHNAKTKPREEQFQSTYRVVSVLTVLHQDWLNGKEYKCKVSNKGLPSSIEKTISKAKGQPREPQVSTLPPSQEEMTKNQVSLMCLVYGFYPSDIAVEWESNGQPENNYKTTPPVLDSDGSFFLYSVLTVDKSRWQEGNVFSCSVMHEALHNHYTQKSLSLSLG
chain 2: RIQMTQSPSSLSASVGDRVTITCKSSQSLLYTSSQKNYLAWYQDKPGKAPKLLIYWASTRESGVPSRFSGSGSGTDFTLTISSLQPEDFATYYCQQYYAYPWTFGQGTKVEIKGQPKAAPSVTLFPPSSEELQANKATLVCYISDFYPGAVTVAWKADSSPVKAGVETTTPSKQSNNKYAAWSYLSLTPEQWKSHRSYSCQVTHEGSTVEKTVAPTEC
For B2, the % AB (LC1/LC2) (correct IgG BsAb assembly) in series [10] stood at 100%. The protein further displayed a % AA Homodimer (incorrect assembly) in series [11] of 0%. Further, the % AB (2x LC1) (incorrect assembly) in series [12] turned out to be 0%. In addition, the % AB (2x LC2) (incorrect assembly) in series [13] was 0%.

B3: anti-c-Met 5D5 VH-human IgG1 HC with CH3 mutations Y349S, K370Y, T366M, K409V, with 5D5 light chain (protein)
chain 1: EVQLVESGGGLVQPGGSLRLSCAASGYTFTSYWLHWVRQAPGKGLEWVGMIDPSNSDTRFNPNFKDRFTISADTSKNTAYLQMNSLRAEDTAVYYCATYRSYVTPLDYWGQGTLVTVSSASTKGPSVFPLAPSSKSTSGGTAALGCLVKDYFPEPVTVSWNSGALTSGVHTFPAVLQSSGLYSLSSVVTVPSSSLGTQTYICNVNHKPSNTKVDKRVEPKSCDKTHTCPPCPAPELLGGPSVFLFPPKPKDTLMISRTPEVTCVVVDVSHEDPEVKFNWYVDGVEVHNAKTKPREEQYNSTYRVVSVLTVLHQDWLNGKEYKCKVSNKALPAPIEKTISKAKGQPREPQVSTLPPSREEMTKNQVSLMCLVYGFYPSDIAVEWESNGQPENNYKTTPPVLDSDGSFFLYSVLTVDKSRWQQGNVFSCSVMHEALHNHYTQKSLSLSPGK
chain 2: DIQMTQSPSSLSASVGDRVTITCKSSQSLLYTSSQKNYLAWYQQKPGKAPKLLIYWASTRESGVPSRFSGSGSGTDFTLTISSLQPEDFATYYCQQYYAYPWTFGQGTKVEIKRTVAAPSVFIFPPSDEQLKSGTASVVCLLNNFYPREAKVQWKVDNALQSGNSQESVTEQDSKDSTYSLSSTLTLSKADYEKHKVYACEVTHQGLSSPVTKSFNRGEC
In the case of B3, the results for the % heterodimer (UPLC) in [14], in series [15] and in series [16] were 83.8%, 86% and 83.5%, respectively.

B4: anti-c-Met 5D5 VH-human IgG1 HC with CH3 mutations Y349S, K370Y, T366V, K409V, with 5D5 light chain (protein)
chain 1: EVQLVESGGGLVQPGGSLRLSCAASGYTFTSYWLHWVRQAPGKGLEWVGMIDPSNSDTRFNPNFKDRFTISADTSKNTAYLQMNSLRAEDTAVYYCATYRSYVTPLDYWGQGTLVTVSSASTKGPSVFPLAPSSKSTSGGTAALGCLVKDYFPEPVTVSWNSGALTSGVHTFPAVLQSSGLYSLSSVVTVPSSSLGTQTYICNVNHKPSNTKVDKRVEPKSCDKTHTCPPCPAPELLGGPSVFLFPPKPKDTLMISRTPEVTCVVVDVSHEDPEVKFNWYVDGVEVHNAKTKPREEQYNSTYRVVSVLTVLHQDWLNGKEYKCKVSNKALPAPIEKTISKAKGQPREPQVSTLPPSREEMTKNQVSLVCLVYGFYPSDIAVEWESNGQPENNYKTTPPVLDSDGSFFLYSVLTVDKSRWQQGNVFSCSVMHEALHNHYTQKSLSLSPGK
chain 2: DIQMTQSPSSLSASVGDRVTITCKSSQSLLYTSSQKNYLAWYQQKPGKAPKLLIYWASTRESGVPSRFSGSGSGTDFTLTISSLQPEDFATYYCQQYYAYPWTFGQGTKVEIKRTVAAPSVFIFPPSDEQLKSGTASVVCLLNNFYPREAKVQWKVDNALQSGNSQESVTEQDSKDSTYSLSSTLTLSKADYEKHKVYACEVTHQGLSSPVTKSFNRGEC
B4: the % heterodimer (UPLC) in [14] came to 93%; in series [15], 84.9%; in series [16] it was 86.5%.

B5: MetMAb HC_7.8.60_A + MetMAb LC (IgG4 HC backbone) (protein)
chain 1: EVQLVESGGGLVQPGGSLRLSCAASGYTFTSYWLHWVRKAPGKGLEWVGMIDPSNSDTRFNPEFKDRFTISADTSKNTAYLQMNSLRAEDTAVYYCATYRSYVTPLDYWGQGTLVTVSSASTKGPSVFPLAPCSRSTSESTAALGCLVKDYFPEPVTVSWNSGALTSGVATGPAVLQSSGLYSLSSVVTVPSSSLGTKTYTCNVDHKPSNTKVDKRVESKYGPPCPPCPAPEAAGGPSVFLFPPKPKDTLMISRTPEVTCVVVDVSQEDPEVQFNWYVDGVEVHNAKTKPREEQFQSTYRVVSVLTVLHQDWLNGKEYKCKVSNKGLPSSIEKTISKAKGQPREPQVYTLPPSQEEMTDNQVSLTCLVKGFYPSDIAVEWESNGQPENNYKTTPPVLMSDGSFFLASRLTVDKSRWQEGNVFSCSVMHEALHNHYTQKSLSLSLG
chain 2: RIQMTQSPSSLSASVGDRVTITCKSSQSLLYTSSQKNYLAWYQDKPGKAPKLLIYWASTRESGVPSRFSGSGSGTDFTLTISSLQPEDFATYYCQQYYAYPWTFGQGTKVEIKGQPKAAPSVTLFPPSSEELQANKATLVCYISDFYPGAVTVAWKADSSPVKAGVETTTPSKQSNNKYAAWSYLSLTPEQWKSHRSYSCQVTHEGSTVEKTVAPTEC
For B5, the % AB (LC1/LC2) (correct IgG BsAb assembly) in series [17] worked out at 100%. In addition, the % AA Homodimer (incorrect assembly) in series [11] is 0%. Besides, the % AB (2x LC1) (incorrect assembly) in [18] was 0%. Also, in [19], the % AB (2x LC2) (incorrect assembly) was found to be 0%.
